According to the Human Domainome abundance scans (Beltran et al. 2025):
± gives the uncertainty stated by the source.

B1: Syntaxin-binding protein 4, residues 493 to 538; numbered along this chain, Q6ZWJ1 (parent)
chain: LDMDCLPYGWEEAYTADGIKYFINHVTQTTSWIHPVMSVLNLSRSE
B2: KAT8 regulatory NSL complex subunit 2, residues 28 to 91; numbered along this chain, Q9H9L4 (parent)
chain: CAFTHRPCSHPRLEGQEFCIKHILEDKNAPFKQCSYISTKNGKRCPNAAPKPEKKDGVSFCAEH

Variants of: B1
Assay: abundance fitness (aPCA) (normalised: wild type 0, dead -1); higher = more abundant; growth selection in yeast, the domain comes from the species named
Details: Homo sapiens

E12I and E12M are within error of each other in abundance fitness: -0.273 ± 0.13 for the first, -0.361 ± 0.12 for the second.

E12Y and E12F are within error of each other in abundance fitness: -0.794 ± 0.18 for the first, -0.801 ± 0.15 for the second.

Compared with L42P, L42N is higher in abundance fitness: -0.304 ± 0.14 for the first, 0.578 ± 0.12 for the second.

L42C and L42V are within error of each other in abundance fitness: 0.025 ± 0.12 for the first, 0.052 ± 0.081 for the second.

L42K and L42D are within error of each other in abundance fitness: 0.16 ± 0.12 for the first, 0.022 ± 0.14 for the second.

First: L42R
Second: H34G
The abundance fitness of the first is higher: 0.108 ± 0.085 for the first, -0.822 ± 0.1 for the second.

Compared with H34M, H34P is higher in abundance fitness: -0.74 ± 0.17 for the first, -0.181 ± 0.11 for the second.

Compared with H34S, H34E is lower in abundance fitness: -0.443 ± 0.097 for the first, -0.826 ± 0.13 for the second.

H34C and M37Y are within error of each other in abundance fitness: -0.439 ± 0.12 for the first, -0.374 ± 0.2 for the second.

M37S and M37K are within error of each other in abundance fitness: 0.28 ± 0.09 for the first, 0.38 ± 0.11 for the second.

M37P and A13N are within error of each other in abundance fitness: -0.603 ± 0.14 for the first, -0.774 ± 0.14 for the second.

A13W and A13P are within error of each other in abundance fitness: -0.766 ± 0.11 for the first, -0.922 ± 0.11 for the second.

Going from A13K to A13L, the abundance fitness falls from -0.534 ± 0.11 to -0.742 ± 0.091.

Going from A13S to Q28S, the abundance fitness rises from -0.5 ± 0.088 to -0.312 ± 0.091.

Going from Q28A to Q28K, the abundance fitness rises from -0.509 ± 0.11 to -0.027 ± 0.13.

Compared with Q28R, Q28E is lower in abundance fitness: -0.316 ± 0.086 for the first, -0.525 ± 0.12 for the second.

G9V and G9W are within error of each other in abundance fitness: -0.692 ± 0.081 for the first, -0.699 ± 0.1 for the second.

Compared with G9C, N24H is higher in abundance fitness: -0.892 ± 0.12 for the first, -0.282 ± 0.14 for the second.

N24F and N24D are within error of each other in abundance fitness: -0.835 ± 0.21 for the first, -0.668 ± 0.21 for the second.

First: N24K
Second: N24W
The abundance fitness of the first is lower: -1.12 ± 0.28 for the first, -0.609 ± 0.13 for the second.

N24S and N24M are within error of each other in abundance fitness: -0.93 ± 0.14 for the first, -0.978 ± 0.27 for the second.

Compared with N24T, L40W is higher in abundance fitness: -0.909 ± 0.18 for the first, -0.136 ± 0.1 for the second.

L40E and L40N are within error of each other in abundance fitness: 0.111 ± 0.11 for the first, 0.04 ± 0.15 for the second.

Compared with L40F, L40P is higher in abundance fitness: -0.304 ± 0.14 for the first, 0.067 ± 0.11 for the second.

L40G and L40S are within error of each other in abundance fitness: 0.164 ± 0.085 for the first, 0.139 ± 0.085 for the second.

Y21R and Y21E are within error of each other in abundance fitness: -0.962 ± 0.1 for the first, -0.953 ± 0.14 for the second.

Y21T and Y21K are within error of each other in abundance fitness: -0.93 ± 0.14 for the first, -0.923 ± 0.17 for the second.

Compared with Y21N, I33G is higher in abundance fitness: -0.731 ± 0.19 for the first, -0.199 ± 0.088 for the second.

First: I33A
Second: I33S
The abundance fitness of the first is lower: -0.248 ± 0.1 for the first, 0.1 ± 0.1 for the second.

First: I33D
Second: I33Y
The abundance fitness of the first is higher: 0.272 ± 0.15 for the first, -0.162 ± 0.17 for the second.

First: I33W
Second: I33C
The abundance fitness of the first is lower: -0.743 ± 0.13 for the first, 0.031 ± 0.12 for the second.

I33F and G18E are within error of each other in abundance fitness: -0.549 ± 0.22 for the first, -0.681 ± 0.13 for the second.

G18D and G18S are within error of each other in abundance fitness: -0.576 ± 0.11 for the first, -0.725 ± 0.091 for the second.

G18Y and G18H are within error of each other in abundance fitness: -0.787 ± 0.15 for the first, -0.862 ± 0.22 for the second.

G18N and G18P are within error of each other in abundance fitness: -0.845 ± 0.15 for the first, -0.834 ± 0.12 for the second.

Compared with V39L, V39S is higher in abundance fitness: -0.386 ± 0.097 for the first, -0.079 ± 0.093 for the second.

Going from V39R to V39P, the abundance fitness rises from -0.083 ± 0.086 to 1.03 ± 0.11.

F22L and F22V are within error of each other in abundance fitness: -0.854 ± 0.094 for the first, -0.904 ± 0.099 for the second.

F22I and W32N are within error of each other in abundance fitness: -0.728 ± 0.16 for the first, -0.342 ± 0.25 for the second.

Going from W32C to W32V, the abundance fitness falls from -0.346 ± 0.12 to -0.787 ± 0.12.

W32L and W32R are within error of each other in abundance fitness: -0.49 ± 0.097 for the first, -0.408 ± 0.085 for the second.

Compared with W32M, W32Q is lower in abundance fitness: -0.151 ± 0.12 for the first, -0.86 ± 0.25 for the second.

I23N and I23T are within error of each other in abundance fitness: -0.708 ± 0.3 for the first, -0.786 ± 0.16 for the second.

I23Q and I23L are within error of each other in abundance fitness: -0.829 ± 0.18 for the first, -0.57 ± 0.099 for the second.

Compared with I23S, I23W is lower in abundance fitness: -0.49 ± 0.1 for the first, -0.811 ± 0.12 for the second.

First: I23P
Second: I23V
The abundance fitness of the first is lower: -0.4 ± 0.11 for the first, 0.023 ± 0.098 for the second.

Going from I23A to I23K, the abundance fitness rises from -0.781 ± 0.12 to -0.282 ± 0.14.

Going from H25A to H25K, the abundance fitness rises from -0.927 ± 0.12 to 0.25 ± 0.15.

Going from H25P to S31Y, the abundance fitness falls from -0.236 ± 0.19 to -0.879 ± 0.18.

First: S31P
Second: S31G
The abundance fitness of the first is lower: -0.788 ± 0.13 for the first, -0.454 ± 0.1 for the second.

S31C and S31R are within error of each other in abundance fitness: -0.698 ± 0.15 for the first, -0.818 ± 0.1 for the second.

S31K and D2K are within error of each other in abundance fitness: -0.471 ± 0.12 for the first, -0.269 ± 0.14 for the second.

D2M and D2A are within error of each other in abundance fitness: -0.334 ± 0.14 for the first, -0.445 ± 0.084 for the second.

D2C and D2F are within error of each other in abundance fitness: -0.699 ± 0.12 for the first, -0.849 ± 0.13 for the second.

First: D2E
Second: T30V
The abundance fitness of the first is higher: -0.206 ± 0.097 for the first, -0.691 ± 0.096 for the second.

T30K and T30Q are within error of each other in abundance fitness: -0.692 ± 0.15 for the first, -0.624 ± 0.12 for the second.

T30I and T30N are within error of each other in abundance fitness: -0.936 ± 0.16 for the first, -0.727 ± 0.25 for the second.

First: S45H
Second: S45P
The abundance fitness of the first is lower: -0.438 ± 0.16 for the first, -0.127 ± 0.15 for the second.

Going from S45F to S45Q, the abundance fitness rises from -0.759 ± 0.18 to -0.32 ± 0.2.

K20I and K20S are within error of each other in abundance fitness: -0.853 ± 0.19 for the first, -0.836 ± 0.1 for the second.

Going from K20V to K20R, the abundance fitness rises from -0.717 ± 0.089 to -0.198 ± 0.075.

K20L and K20Y are within error of each other in abundance fitness: -0.794 ± 0.094 for the first, -0.783 ± 0.15 for the second.

Going from K20H to K20C, the abundance fitness falls from -0.444 ± 0.18 to -0.753 ± 0.1.

S43F and S43I are within error of each other in abundance fitness: -0.531 ± 0.12 for the first, -0.606 ± 0.16 for the second.

S43Y and S43M are within error of each other in abundance fitness: -0.876 ± 0.24 for the first, -0.75 ± 0.17 for the second.

S43Q and S43W are within error of each other in abundance fitness: -0.732 ± 0.26 for the first, -1 ± 0.16 for the second.

Going from S43R to S43A, the abundance fitness falls from -0.17 ± 0.094 to -0.526 ± 0.11.

Going from S38M to S38Y, the abundance fitness rises from -0.663 ± 0.13 to -0.376 ± 0.14.

Compared with S38C, S38P is higher in abundance fitness: -0.567 ± 0.14 for the first, -0.141 ± 0.097 for the second.

Work on S38Q yielded an abundance fitness of -0.697 ± 0.15.

Variants of: B2
Assay: as above
Details: Homo sapiens

CAFTHRPCSHPRLEGQEFCIKHILEDKNAPFKQCSYISTKNGKRCPNAAPLPEKKDGVSFCAEH [K51L] and CAFTHRPCSHPRLEGQEFCIKHILEDKNAPFKQCSYISTKNGKRCPNAAPNPEKKDGVSFCAEH [K51N] are within error of each other in abundance fitness: -0.101 ± 0.052 for the first, -0.195 ± 0.12 for the second.

CAFTHRPCSHPRLEGQEFCIKHILEDKNAPFKQCSYIETKNGKRCPNAAPKPEKKDGVSFCAEH [S38E] and CAFTHRPCSHPRLEGQEMCIKHILEDKNAPFKQCSYISTKNGKRCPNAAPKPEKKDGVSFCAEH [F18M] are within error of each other in abundance fitness: -0.059 ± 0.081 for the first, -0.196 ± 0.063 for the second.

CAFTHRPCSHPRLEGQEFCIKHILEDKNAPFKQCSYISTKCGKRCPNAAPKPEKKDGVSFCAEH [N41C] and CAFTHRPCSHPRLEGQEFCIKHILEDKNAPFKQCSYISTKNGKRCPNAAPKPEKKDGVSFCCEH [A62C] are within error of each other in abundance fitness: -0.161 ± 0.09 for the first, -0.018 ± 0.057 for the second.

First: CAFTHRPCSHPRLEGQEFCIKHILEDKNAPFKQCSYISTFNGKRCPNAAPKPEKKDGVSFCAEH [K40F]
Second: CAFTHRPCSHPRLEGQEFDIKHILEDKNAPFKQCSYISTKNGKRCPNAAPKPEKKDGVSFCAEH [C19D]
The abundance fitness of the first is higher: -0.037 ± 0.23 for the first, -0.994 ± 0.13 for the second.

CAFTHRPCSHPRLEGQHFCIKHILEDKNAPFKQCSYISTKNGKRCPNAAPKPEKKDGVSFCAEH [E17H] and CAETHRPCSHPRLEGQEFCIKHILEDKNAPFKQCSYISTKNGKRCPNAAPKPEKKDGVSFCAEH [F3E] are within error of each other in abundance fitness: -0.129 ± 0.098 for the first, -0.285 ± 0.085 for the second.

Compared with CAFTHRPCSHPRDEGQEFCIKHILEDKNAPFKQCSYISTKNGKRCPNAAPKPEKKDGVSFCAEH [L13D], CAFTHRPCSHPRLEGQEFCIKHILEDKKAPFKQCSYISTKNGKRCPNAAPKPEKKDGVSFCAEH [N28K] is higher in abundance fitness: -0.501 ± 0.086 for the first, -0.1 ± 0.088 for the second.
